# Experiment: soluble on expression in E. coli; label from the status in PepcDB or PDB records
row,Sequence,soluble on expression in E. coli
1,MPNQVLFCITKMRYEEKRIYHYLEESGLSIKIMLDSSNLDEVVAHNSDYCLCIVRVMSQHRAFRIAEYMEALGIPTLNSSRAIQICADKAIQALILANRDVIKQPHFSILRNYEDLSNFNGKMVVKPVSSSWGRGISLIENEDALTTWKISHQELDIQNQNLPYLIQEFIDKPNYDVRIVIINTKPVVAFKRVSANNWKTNTHLGATVVPIVIDDSINKIVTEIIKVVGPGIYGLDLMKNRQNEWIFCEINQNPEFAHSWKIHHVDVAEKIAQYVSSKVKVGQKNASTHLEHHHHHH,not soluble
2,MPPAGQDDLDFLKYAMESYVADVNADIGKTTIVFTLREKAGALAETLKLFQAHDVNLSHIESRPSKTHEGCYEVLVEFAEAEDHRKIEGVIEHFQQKAEKKVLVQDWNTKNKQNKDSVPWFPQKINDIDQFANRILSYGAELDADHPGFKDMTYRERRKFFADIAFNFKHGDKIPTITYTDEEIATWRTVYNELTVMYPKNACQEFNYIFPLLQQNCGFGPDRIPQLQDVSDFLKDCTGYTIRPVAGLLSSRDFLAGLAFRVFHSTQYIRHHSAPKYTPEPDICHELLGHVPLFADVEFAQFSQEIGLASLGAPDDVIEKLATLYWFTIEFGICQQDGEKKAYGAGLLSSFGELQYALSDKPEVVDFDPAVCCVTKYPITEYQPKYFLAESFASAKNKLKSWAATINRPFQIRYNAYTQRVEILDKVAALQRLARDIRSDISTLEEALGKVNNLKMK,not soluble
3,MPPKKNVVEEKPALIGRLGTNLKVGILGLPNVGKSTFFNVLTKSEAQAENFPFCTIDPNESRVAVQDDRFDWLVNHYKPASKVPAFLNVTDIAGLVKGASEGQGLGNAFLSHVSACDALFHLCRAFDDDDVTHVEGEVDPVRDLEIISNELFAKDLQFIDGPLDKVEKLFTRANDKTKKIEYDTLVRVKKCLEEKKPVRQELWNEKEIEILNKHLFLTAKPIVYLVNLSEKDYIRKKNKWLPKIKAWIDTNDAGAVLIPFSGAFELKLLDMPEDERQKYLKEQGVTSNLDKIVHTGYKALQLEYFFTSGEDEVKAWTIQVGTPAPKAAGRIHTDFEKGFIMAEVMKVADLIELGDEAKCKAGGKYRQQGKTYIVQDGDVIFFKFNAGAGLQAKKK,not soluble
4,MPPKPKKSTGAKKKVSKLNKRPSKISVVSVNERSKNERSVMQSIEQEEATNNEIVPTPKKTTAQIAQQPTPTLPQIIAKQEPEVAMKTMMLPPPSDPPPPPPPVAPHQPPPQLATSAQPPQPPVINSQLPRMSPAPAIPPSMAQPLLQSPSPGADIAIRRPSKEKTDEKSVDETGGSDKKKRTEVICSWIRLVLQNGVAGLKKEYRDSPNEAPEDIATSFLGNPTRNRYRNIPCCDITRVKLTDDPHFYIHANLVSSGPNPRRFICTQAPLNGTIEEFWKMIIVTGIEYIVMLCELVEKGKPKSAEYFPSQIGQTTKIGRLCTVTKESRVDIDKTLVMSTMRISKPGDNAVVKIVKHIHWRNWPDHGVPDNFLSPFRLLTVVKNCTKPIVVHCSAGVGRTGTLALILIILESICLPDFIGVPRLLAKLREERFRAVQTEMQYLYAHRCVLEYLALKKYVQSREDFAKFAKDYEQALAMCPKEA,not soluble
5,MPPKTRKTKKEDVEEEAVEEILEETKPAKLPESDESYSRKVVISKEGNLPNSRIIKLRHPKEGLALFRISETCFDEIFAVNDGHRSFFYGESVIENGTIHIFTPYNLVFICLPYLQKTAGKFVEIGEILVDDQVDGIKELAENERILKALEAVSDVKDVLDVKLYRLNDQKMLDWMRRKFDSLKKLLESDAHKSLLSCPEAFDRYVFTFLSEYLSSDLALIVKDHLNIQDATVSENIDMSMKRKAVDDDELEDKKQPVAKKPKESVQSKKLQAASKGTKSISSFFGKKSA,soluble
6,MPPQKSKALWYAQLELGFRFDGQRTIMNHRKHHGPVRVQKMLWPEKTGVCHAIIVHPPAGIAGGDHLTFQVSTERKAHAVVTTPGAGKWYKTNGKQAFQHIYLNIANDSTLEWLPQETMLFDAAYAQSETIIHLDQTASFMGWDMLVLGRQARLETFEQGCYANRFKLYRNHKLLVADTLRFKGKDRWLSSCLGMNGHAVMGSFWAVAPEKYRATLYLEQHIELIRELMMRMDVPVTLTLLDDVVCARFLGDDVRACHDAFAAIRARLRRYWFDLDEEFPRIWRTLEHHHHHH,not soluble
7,MPQSKFRLCSTKGTSMFSHIMIGSNDIEKSKVFYDAILSVLGYPAGVIDAKGRCLYINQDGVLGITKPVNGEPATHGNGMTIGFKVSSPELVEAWHAAGLANGGVACEDPPGIRTSGQRKMYLAYLRDPAGNKLCATHHMSTGN,not soluble
8,MPRINSPHITGNYPSTPFIFYIPTSGQRPMQWSAEKLPEGLELDSKTGIISGVMTSKGDYTVTLKAENALGVSVKQLVIRIGDELLLEHHHHHH,not soluble
9,MPRKQLKGETHDQKAQIASAFGEIEQSKIFLDKRSESAAVKMDIADLLKEIIQKQLRKDYDPEVESNIFINPERGDFEVYILKKIVKEVDLPTIEIGLDEVRQIDDSLELGDYYEEGPIKLDDYLTRKSIQIIKQSVQKKVRDLERLAVYEECLEKVGEVVAGEVYQVRPNEVIFTYNTSKDHRVELVLPKSEMMKKDNPRRTPRMKLYVKRIEREKVKVRNDDGTVEEREKPDGGMKVIVSRVDDRFLYKLFESEVPEILDGLIVIKGIARVPGERAKVAVESTSSRIDPVGATVGYRGKRIQSIVKELNNENIDVIYYTDEPQVFIARALQPAKIDPMTVHADMKTRKARVMLKPDQIKYAIGKNGNNIHLAEKLTGYEIDVYRDVIDKSLEDPNDIDIIEFREEFGDDMIYQLLDGGLDTAKKILKGGVEKIEEALLGTQKSEELFVFNKTRKPVKPKERRITDDEKRYWKKIAETIYRTVREQFNDEDLKALLDDSHERSLKGDGIDPEEIRDKETNLEHHHHHH,not soluble
10,MPRLLPVDSCDTEEYTLTEPPRNPQEYLRFVQREASLCPDVVVAQIDPKKLKKQSVNVSITGCLAAPEGFSPSFKWQQQQVSRFSEVRQSVNKHRQHWKAQFLDDNVVMPKTEDEDGWKRFCLGENVCLEIQLKEEDGVNPGLDYVKTGFPPFLSIVSKLSQSTVSAVLEYLINWFEERAFVPQLGRWLYALLACLEKPLLPEAHSLIRQLARRCSAVRANLESKDDDRLSALNLMICIVARYFEQNDLADKE,soluble
11,MPRTVTHNPDSPNNDDVLAASEKWDACKPPYTSAHMKICVAAAKIILAASGVARCSKYEKENYLRIDFSKAGKVTFYAEFPKKMGLKGKKLGEWPELVIQLAREKALGMADGGLRAESVHAALEMYRDDPKPK,not soluble
12,MPSETPQAEVGPTGCPHRSGPHSAKGSLEKGSPEDKEAKEPLWIRPDAPSRCTWQLGRPASESPHHHTPPAKSPKILPDILKKIGDTPMVRINKIGKKFGLKCELLAKCEFFNAGGSVKDRISLRMIEDAERDGTLKPGDTIIEPTSGNTGIGLALAAAVRGYRCIIVMPEKMSSEKVDVLRALGAEIVRTPTNARFDSPESHVGVAWRLKNEIPNSHILDQYRNASNPLAHYDTTADEILQQCDGKLDMLVASVGTGGTITGIARKLKEKCPGCRIIGVDPEGSILAEPEELNQTEQTTYEVEGIGYDFIPTVLDRTVVDKWFKSNDEEAFTFARMLIAQEGLLCGGSAGSTVAVAVKAAQELQEGQRCVVILPDSVRNYMTKFLSDRWMLQKGFLKEEDLTEKKPWWWHLRVQELGLSAPLTVLPTITCGHTIEILREKGFDQAPVVDEAGVILGMVTLGNMLSSLLAGKVQPSDQVGKVIYKQFKQIRLTDTLGRLSHILEMDHFALVVHEQIQYHSTGKSSQRQMVFGVVTAIDLLNFVAAQERDQK,soluble
13,MPTFRSNIVVFNLIARRAFTTTSTKNMGFVEKVRLLDYWKIQDSALQSEFPRSRLVLMVDRRLLVTKDQPDVQMVELSFDDLKQRLGEYGLQFDLSNSCLLDALSTDVDMIPLFGTSIDAADPPEDSPISKKEVLKQLGNSLGGRFTDIRMAMLTMREERQRNLLAKFQSLTKWASIYRRCPKCAAALKMRSSKSGAECVTCQRVYYPTFSPVSITLITDPTNEHALLVRHRGSAGGVFTAVAGFAHSGESMAECARREIAEEVGIEVDSIRSLDMSQPWPMPDSSLMIAHVAVAKIDQKISVCPDELETAQWFTRHQVKEALTTTLADPLLKNLPRTLDDRQTLHYIPPAGAIAHQMIRQWVDGKLENHNSRI,not soluble
14,MPTIQQLVRKGRRDKISKVKTAALKGSPQRRGVCTRVYTTTPKKPNSALRKVARVKLTSQVEVTAYIPGEGHNLQEHSMVLVRGGRVKDLPGVRYKIIRGSLDTQGVKNRKQARSRYGAKKEKG,not soluble
15,MPTNNAPQVAINDIGSAEDFLAAIDATIKYFNDGDIVEGTVVKVDRDEVLLDIGYKTEGVIPSRELSIKHDVDPDEVVEVGDQIDALVLTKEDKEGRLILSKKRAQYERAWGAIEELKEKDEPVTGTVIEVVKGGLIIDIGLRGFLPASLVEMRRVRDLDPYIGQELEAKIIELDKNRNNVVLSRRAFLEQTQSEVRSEFLHQLQKGQVRKGVVSSIVNFGAFVDLGGVDGLVHVSELSWKHIDHPSEVVTVGDEVTVEVLEVDLDRERVSLSLKATQEDPWRVFARTHAVGQIVPGKVTKLVPFGAFVRVEEGIEGLVHISELAQRHVEVPDQVVAVGEEVMVKVIDIDLERRRISLSLKQADEDYTEEFDPSKYGMADSYDEQGNYIFPEGFDAETNEWLEGFDEQRQAWEARYAESERRFTAHTAQIERRRQQAEEAAAEAPAGNYSTDSAEDAPAAEAVEESAGSLASDEQLAALREKLAGNLEHHHHHH,soluble
16,MPTPAYIKIVGQTQGNITAGAFTADSVGNVFQQGHEDQILVQEIKHEVTTPTDPQSGQPSGQRVHKPFIFTSSLNKATPLMYQALATGEMLPTVEVSWYRTSSEGKQEHFFTTTLEDATIVSINTVLPHALDKDNENYTQLVEVSLAYRKITWAHDVANTEGSDDWRAPAA,not soluble
17,MPTPDFVLQLREKIGNDPLFLPGVTAVVIKDVPEGAPITAVPEVLLVKRADNGEWTPVTGIVDPGEQPHSAAVREVKEETGLDVTVEALLGVGAVGPVTYPNGDVSHYMDTAMRCEVVGDSTPRIGDDENTEVRWFSVMQMPPMKPRFRLVVGDAVAQLRRPEGFRPRMGYEKRERRR,not soluble
18,MPTPEDVPMDENDAGRVAEGSQDESKTPSREVLKKLLNEVEMAEMEENEMWYLISQKWWNSLIKAVRDGFVDDVGPIDNSQISECRNGSFFLKQRLAEQVDYTPVPEILFKRLERFYHIDDDRRDYIQRRVVRKDGKLCIEVYPRIVHITSARNRDIKADLVLRPDDTMVSLRERVIGELSLSTTDNIRFYVMNGENYELIDTAQSIDSYFDTVQKVVVDVEEDGEFFIKGKSATPKSLFGTQSSSSHGGNGISNSYNSPSPSTGVVTRTTPGACGLSNLGNTCFMASAFQCLSNMPPLREYFLANTYQNDINEDNPLGTHGHLAMAVGELMKGMWSGDYASINPRKFKSIIGQFAPRFNGYSQQDAHELMAYVLDGLHEDLNRIKKKPYIEDSDEDAKLPEAEYAAKSWEVYKMRNDSIIVDTLHGQLKSTLICPVCEKISIKFDPFGYLSLPLPPKEQIVKQTVIVMFLTRKWAKFSLGITDTTTVEEAERLMLDKLQPEQQHHFVFFHVPSQYHDDITMMRPGDRVRMPGREVYVAEVEHDLQVKGTRLFVAYNRIKLVRSASLPMIYSLPTGYPLTRGFLNDHVFSTTKHFFINPKAVAELGGGNSNDDDSMSGSNSADEREPYKLFVGPPGSTASLPIPPTDDPIPFPDENSHDIYSNFLQIVFQWKDLKIFNQYKGNELIEREMTVSTRRKVLLQETLDWFTTKEQLGEQDSWYCPQCKKHERATKQLALWKLPEILILHLKRFQYTKWSREKLTWEVVIPVRGLDLTDKVANPNHEKAIYDLIAVSRHYGSLSGGHYTAIGYNDREQKWFDFNDSSANPTYPPAEPYESSDPYILVYRRRKLDSNGKPIEPSAVSESLHSRPKRGAAPTISSATSSASSSRHQVDENMEMEED,not soluble

# — the DeepSol protein solubility set
